# In article PMC10641529, “Selective targeting and clustering of phosphatidylserine lipids by RSV M protein is critical for virus particle production” (The Journal of Biological Chemistry, 2023):
# What was measured:
# [1] = molecular target: His6-GCN4-FCT (Histidine tag and GCN4 leucine zipper domain fused to the cytoplasmic tail of the RSV fusion (F) glycoprotein) (not stated | human respiratory syncytial virus); experiment: SDS-PAGE with Western blotting; purified His-GCN4-FCT on SDS-PAGE, detected with an anti-His antibody
# RSV M protein = molecular target: T1, RSV M protein (Human respiratory syncytial virus A2, UniProt P0DOE7); experiment: LUV cosedimentation, SDS-PAGE densitometry; format: binding; settings: PC:PS (70:30) LUVs; accessible PS 50 μM to 1.5 mM; 8 μM M; 150 mM NaCl, 10 mM Tris-HCl, pH 7.4, 25 °C; acyl chains of PS not told; read-out: Kd,app
# T1 construct: full-length M, recombinant from E. coli Rosetta 2 (pCDF-M); His6 tag cut with 3C protease; dimer
# T1 sequence (P0DOE7 whole entry): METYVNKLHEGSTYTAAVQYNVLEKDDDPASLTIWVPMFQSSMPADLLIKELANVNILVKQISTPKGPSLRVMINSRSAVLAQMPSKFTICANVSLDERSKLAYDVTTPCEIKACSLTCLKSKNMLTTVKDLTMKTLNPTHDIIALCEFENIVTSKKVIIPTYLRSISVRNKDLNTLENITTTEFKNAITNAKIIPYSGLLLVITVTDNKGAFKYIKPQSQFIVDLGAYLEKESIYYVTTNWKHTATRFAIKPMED
Substance,stoichiometry N [1],Kd (RSV M protein) [µM]
His6-GCN4-FCT (Histidine tag and GCN4 leucine zipper domain fused to the cytoplasmic tail of the RSV fusion (F) glycoprotein),3,
phosphatidylserine [PS],,15 to 57
